Data on four substances can be found in publication doi:10.1101/2024.12.18.629156.

The term Kd denotes the constant that tells how readily two partners part at equilibrium. Lower therefore signals higher affinity.

For data set [1], the system named is His6-SUMO-ecHOP1-wHTH WT (Ectocarpus (E. siliculosus; model brown alga)). Description: EMSA.
Data set [2] has as its target ecHOP1-HORMA (2xStrepII-ecHOP1-HORMA, residues 1-274) (Ectocarpus). Description: ITC. (ITC needs no label: the signal is the heat of the interaction.)

On to 167 bp Widom DNA, for which, in data set [1], the Kd amounted to 0.25 µM. Take “MBP-ecHOP1 CM1-1 (closure motif 1 of ecHOP1 isoform 1, residues 567-600) (domain or fragment)”: in data set [2], the Kd was determined as 7.2 µM.

Regarding “MBP-ecHOP1 CM2-1 (closure motif 2 of ecHOP1 isoform 1, residues 665-694) (domain or fragment)”, in data set [2], the Kd was 10.6 µM. The Kd values of the last two substances are within 1.5-fold of each other. Take “MBP-ecRED1 CM1 (putative closure motif 1 of ecRED1) (domain or fragment)”: in data set [2], the Kd was determined as 60.3 µM.
